Source: the supplement of paper PMC7877785
± gives the uncertainty stated by the source.

Assay: self-splicing fitness, log relative to wild type (ln ratio); higher = more splicing; Tetrahymena group I intron in knt gene, E. coli kanamycin selection, DiMSum; sequences stand for … in CUCUCU…GGAGGGAAAAGUUAUCAGGCAUGCACCUGGUAGCUAGUCUUUAAACCAAUAGAUUGCAUCGGUUUAAAAGGCAAGACCGUCAAAUUGCGGGAAAGGGGUCAACAGCCGUUCAGUACCAAGUCUCAGGGGAAACUUUGAGAUGGCCUUGCAAAGGGUAUGGUAAUAAGCUGACGGACAUGGUCCUAACCACGCAGCCAAGUCCUAAGUCAACAGAUCUUCUGUUGAUAUGGAUGCAGUUCACAGACUAAAUGUCGGUCGGGGAAGAUGUAUUCUUCUCAUAAGAUAUAGUCGGACCUCUCCUUAAUGGGAGCUAGCGGAUGAAGUGAUGCAACACUGGAGCCGCUGGGAACUAAUUUGUAUGCGAAAGUAUAUUGAUUAGUUUUGGAGUACUCGUGGUCG
How it was run: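 Fitness was computed with DiMSum as the error-weighted combination of replicate fold changes, kanamycin versus none, each normalised to wild type. The library randomised all eight intron nucleotides of the P1ex region, with the intron placed in the knt kanamycin-resistance gene on pET-22b(+) in E. coli BL21(DE3). Six replicate transformations were grown overnight at 37°C or 30°C on LB agar with or without 25 μg/mL kanamycin, plus 100 μg/mL carbenicillin, 50 μM IPTG and 0.2% rhamnose. Pooled colonies were amplicon-sequenced on an Illumina HiSeq 2500.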

Row | Sequence | self-splicing fitness (ln) (30 °C) | self-splicing fitness (ln) (37 °C)
1 | GAUGAGCAAUAUUACGCGCG | -1.68 ± 0.23 | -0.518 ± 0.17
2 | UACAAGCAAUAUUACGCCGC | – | -2.06 ± 0.43
3 | UAUAAGCAAUAUUACGCCAA | -1.14 ± 0.29 | -0.0916 ± 0.42
4 | AUACAGCAAUAUUACGAAGG | -3.3 ± 0.24 | -2.87 ± 0.28
5 | CUAGAGCAAUAUUACGCUAG | -3.78 ± 0.34 | -2.49 ± 0.28
6 | GUAUAGCAAUAUUACGCCGU | -2.69 ± 0.23 | -0.947 ± 0.19
7 | AGGAAGCAAUAUUACGUCGC | -2.62 ± 0.28 | -2.06 ± 0.24
8 | UUCAAGCAAUAUUACGGAGG | -4.04 ± 0.27 | -2.58 ± 0.19
9 | UGCUAGCAAUAUUACGACGA | -0.229 ± 0.13 | 0.191 ± 0.12
10 | CUCCAGCAAUAUUACGUAGA | -3.31 ± 0.15 | -2.58 ± 0.16
11 | GAUUAGCAAUAUUACGAACA | -0.848 ± 0.21 | 0.129 ± 0.17
12 | CUAGAGCAAUAUUACGUGCC | -2.84 ± 0.24 | -1.41 ± 0.24
13 | UAGAAGCAAUAUUACGGAGA | -3.26 ± 0.39 | -2.46 ± 0.26
14 | UCGUAGCAAUAUUACGUUGG | -2.59 ± 0.17 | -0.973 ± 0.17
15 | GUUGAGCAAUAUUACGAUCU | -0.691 ± 0.093 | -1.12 ± 0.11
16 | UCUAAGCAAUAUUACGCCAU | -3.76 ± 0.46 | -2.37 ± 0.42
17 | UUGGAGCAAUAUUACGACGA | -0.765 ± 0.14 | 0.309 ± 0.21
18 | GGCAAGCAAUAUUACGCUGU | -4.24 ± 0.23 | -2.05 ± 0.2
19 | GAUGAGCAAUAUUACGCUUA | -2.21 ± 0.28 | -2.33 ± 0.25
20 | GGGUAGCAAUAUUACGGCAG | -3.66 ± 0.4 | -2.62 ± 0.4
21 | UCGAAGCAAUAUUACGGGCU | -4.18 ± 0.39 | -2.67 ± 0.35
22 | ACUAAGCAAUAUUACGCCGG | -1.03 ± 0.11 | -0.877 ± 0.18
23 | AAACAGCAAUAUUACGGCAU | -0.814 ± 0.066 | -0.78 ± 0.08
24 | GUAAAGCAAUAUUACGCCGG | -1.27 ± 0.13 | 0.13 ± 0.17

Row | Sequence | self-splicing fitness (ln) (30 °C) | self-splicing fitness (ln) (37 °C)
25 | CAUGAGCAAUAUUACGGGCU | -3.53 ± 0.16 | -2.11 ± 0.15
26 | CCGAAGCAAUAUUACGUGAA | -3.64 ± 0.16 | -2.82 ± 0.14
27 | AAUGAGCAAUAUUACGCAUU | -3.92 ± 0.47 | -2.74 ± 0.36
28 | AACAAGCAAUAUUACGGCGA | -0.0322 ± 0.064 | -0.329 ± 0.071
29 | UUUGAGCAAUAUUACGAAAU | -3.72 ± 0.2 | -2.09 ± 0.17
30 | UAGUAGCAAUAUUACGUCUC | -3.51 ± 0.45 | -1.59 ± 0.2
31 | AUAAAGCAAUAUUACGUUAG | -1.33 ± 0.067 | -0.504 ± 0.088
32 | AUCUAGCAAUAUUACGCCUC | -1.62 ± 0.19 | -1.33 ± 0.34
33 | ACACAGCAAUAUUACGAGAC | -3.25 ± 0.14 | -2.54 ± 0.17
34 | AAGUAGCAAUAUUACGAGGG | -3.71 ± 0.24 | -3.29 ± 0.28
35 | ACUCAGCAAUAUUACGCUAU | -1.9 ± 0.061 | -0.569 ± 0.07
36 | GUCGAGCAAUAUUACGAACG | – | -1.02 ± 0.23
37 | CCCUAGCAAUAUUACGCAGA | -3.68 ± 0.31 | -1.73 ± 0.15
38 | AAUGAGCAAUAUUACGCGCA | -2.54 ± 0.34 | -1.76 ± 0.49
39 | CCGCAGCAAUAUUACGUUAA | -3.03 ± 0.18 | -2.1 ± 0.2
40 | UUUGAGCAAUAUUACGAAUG | -3.15 ± 0.25 | -0.965 ± 0.29
41 | UCAAAGCAAUAUUACGGUCG | -0.405 ± 0.069 | -0.439 ± 0.094
42 | GCUCAGCAAUAUUACGUCAU | -2.27 ± 0.06 | -1.26 ± 0.074
43 | UUACAGCAAUAUUACGCGGU | -2.9 ± 0.12 | -3.15 ± 0.24
44 | GUAUAGCAAUAUUACGCUCG | -0.631 ± 0.15 | -0.0296 ± 0.19
45 | CGAAAGCAAUAUUACGGAGG | -0.982 ± 0.097 | -1.45 ± 0.14
46 | UGGCAGCAAUAUUACGAGCC | -2.1 ± 0.29 | -2.37 ± 0.44
47 | CAACAGCAAUAUUACGGCUA | -1.28 ± 0.073 | -0.553 ± 0.073
